Reference: paper PMC7262448

Experiments:
mouse plasma proteins = assay: EScalate equilibrium shift assay; binding of peptide to the proteins of human or mouse plasma; percentage of peptide unbound, determined in duplicate
human plasma proteins = assay: as above
[1] = target: human SNAP-GLP-1R (human) (UniProt P43220)
mouse GLP-1R (mouse) = mouse GLP-1R (mouse) (UniProt O35659)
rat GLP-1R (rat) = rat GLP-1R (rat) (UniProt P32301)
[2] = target: human SNAP-GLP-1R (human) (UniProt P43220); assay: FRET or BRET

Chain of rat GLP-1R (rat) (P32301 22-463): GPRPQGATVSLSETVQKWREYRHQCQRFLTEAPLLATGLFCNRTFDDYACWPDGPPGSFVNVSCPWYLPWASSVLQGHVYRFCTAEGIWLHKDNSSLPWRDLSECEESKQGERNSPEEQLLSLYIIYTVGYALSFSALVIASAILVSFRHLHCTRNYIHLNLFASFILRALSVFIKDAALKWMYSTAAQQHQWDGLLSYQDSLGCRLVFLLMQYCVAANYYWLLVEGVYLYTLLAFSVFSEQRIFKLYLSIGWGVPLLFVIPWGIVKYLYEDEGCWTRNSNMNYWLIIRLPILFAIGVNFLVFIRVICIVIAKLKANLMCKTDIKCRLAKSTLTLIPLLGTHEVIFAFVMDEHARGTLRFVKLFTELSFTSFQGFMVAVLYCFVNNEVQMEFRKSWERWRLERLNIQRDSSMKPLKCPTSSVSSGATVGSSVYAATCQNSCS
Chain of human SNAP-GLP-1R (human) (P43220 24-463): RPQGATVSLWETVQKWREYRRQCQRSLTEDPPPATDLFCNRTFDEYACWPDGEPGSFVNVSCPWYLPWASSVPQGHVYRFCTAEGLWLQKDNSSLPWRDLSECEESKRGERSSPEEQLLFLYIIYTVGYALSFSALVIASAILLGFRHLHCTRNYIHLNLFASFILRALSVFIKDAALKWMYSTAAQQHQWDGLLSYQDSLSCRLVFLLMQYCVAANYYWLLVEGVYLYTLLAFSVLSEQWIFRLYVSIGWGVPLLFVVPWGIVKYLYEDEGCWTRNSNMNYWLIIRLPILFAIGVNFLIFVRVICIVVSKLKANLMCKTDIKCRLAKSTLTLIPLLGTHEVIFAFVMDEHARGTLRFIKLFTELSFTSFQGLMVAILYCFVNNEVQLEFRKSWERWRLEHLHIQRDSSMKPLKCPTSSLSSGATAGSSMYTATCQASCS
Chain of mouse GLP-1R (mouse) (O35659 22-463): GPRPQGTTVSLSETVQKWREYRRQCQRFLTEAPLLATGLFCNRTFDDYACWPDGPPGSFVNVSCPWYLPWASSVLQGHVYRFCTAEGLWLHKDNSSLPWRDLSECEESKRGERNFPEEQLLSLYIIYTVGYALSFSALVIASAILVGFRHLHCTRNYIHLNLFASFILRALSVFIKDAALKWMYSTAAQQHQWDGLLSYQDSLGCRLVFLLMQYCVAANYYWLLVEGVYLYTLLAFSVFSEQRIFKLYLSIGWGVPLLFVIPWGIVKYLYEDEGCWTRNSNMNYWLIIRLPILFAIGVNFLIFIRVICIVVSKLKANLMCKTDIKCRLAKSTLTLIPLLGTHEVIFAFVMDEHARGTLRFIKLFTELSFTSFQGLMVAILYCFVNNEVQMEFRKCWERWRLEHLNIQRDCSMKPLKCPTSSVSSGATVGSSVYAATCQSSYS

[G^40,K^41.C16 diacid]exendin-4 (from UniProt P26349 48-87) (peptide)
unbound fraction (fu) (mouse plasma proteins): 2.6%
unbound fraction (fu) (human plasma proteins): 2.3%

[D^3,G^40,K^41.C16 diacid]exendin-4 (peptide)
cAMP (1% FBS), HEK293-SNAP-GLP-1R cells, Emax [1]: 97 % max
cAMP (1% FBS), HEK293-SNAP-GLP-1R cells, pEC50 [1]: 10.4 pEC50 (M)
cAMP, MIN6B1 cells (with IBMX), Emax (mouse GLP-1R (mouse)): 97 % max
cAMP, MIN6B1 cells (with IBMX), pEC50 (mouse GLP-1R (mouse)): 10.8 pEC50 (M)
cAMP, INS-1 832/3 cells (with IBMX), Emax (rat GLP-1R (rat)): 101 % max
cAMP, INS-1 832/3 cells (with IBMX), pEC50 (rat GLP-1R (rat)): 8.7 pEC50 (M)
unbound fraction (fu) (mouse plasma proteins): 2.1%
unbound fraction (fu) (human plasma proteins): 2.2%
pKd [2]: 8.9 pKd (M)

[F^1,G^40,K^41.C16 diacid]exendin-4 (peptide)
cAMP (1% FBS), HEK293-SNAP-GLP-1R cells, Emax [1]: 49 % max
cAMP (1% FBS), HEK293-SNAP-GLP-1R cells, pEC50 [1]: 8.2 pEC50 (M)
cAMP, MIN6B1 cells (with IBMX), Emax (mouse GLP-1R (mouse)): 98 % max
cAMP, MIN6B1 cells (with IBMX), pEC50 (mouse GLP-1R (mouse)): 7.9 pEC50 (M)
cAMP, INS-1 832/3 cells (with IBMX), Emax (rat GLP-1R (rat)): 41 % max
cAMP, INS-1 832/3 cells (with IBMX), pEC50 (rat GLP-1R (rat)): 7.5 pEC50 (M)
unbound fraction (fu) (mouse plasma proteins): 2.4%
unbound fraction (fu) (human plasma proteins): 2.1%
pKd [2]: 8.3 pKd (M)

F^1-exendin-4 (peptide)
cAMP (1% FBS), HEK293-SNAP-GLP-1R cells, Emax [1]: 83 % max
cAMP (1% FBS), HEK293-SNAP-GLP-1R cells, pEC50 [1]: 9 pEC50 (M)
cAMP, MIN6B1 cells (with IBMX), Emax (mouse GLP-1R (mouse)): 97 % max
cAMP, MIN6B1 cells (with IBMX), pEC50 (mouse GLP-1R (mouse)): 9.2 pEC50 (M)
cAMP, INS-1 832/3 cells (with IBMX), Emax (rat GLP-1R (rat)): 97 % max
cAMP, INS-1 832/3 cells (with IBMX), pEC50 (rat GLP-1R (rat)): 8.4 pEC50 (M)
pKd [2]: 7.8 pKd (M)

D^3-exendin-4 (peptide)
cAMP (1% FBS), HEK293-SNAP-GLP-1R cells, Emax [1]: 96 % max
cAMP (1% FBS), HEK293-SNAP-GLP-1R cells, pEC50 [1]: 10.6 pEC50 (M)
cAMP, MIN6B1 cells (with IBMX), Emax (mouse GLP-1R (mouse)): 101 % max
cAMP, MIN6B1 cells (with IBMX), pEC50 (mouse GLP-1R (mouse)): 11 pEC50 (M)
cAMP, INS-1 832/3 cells (with IBMX), Emax (rat GLP-1R (rat)): 100 % max
cAMP, INS-1 832/3 cells (with IBMX), pEC50 (rat GLP-1R (rat)): 9 pEC50 (M)
pKd [2]: 9.1 pKd (M)
